# Legend:
# mCAR promoter = experiment: NHR-promoter luciferase screen, mCAR promoter; format: cell-based, mouse; settings: for luciferase activity normalized to lacZ activity and to a control, mCAR: mCAR promoter-luciferase, CV-1 cells, NHR +/- ligand, control = 1.00; for Luc. act., normalized to lacZ / Normalized Luc. act., normalized to control: mCAR promoter, HR/ligand component
# How it was run: (§1)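 CV-1 cells were co-transfected with 50 ng NHR (homodimer or NHR/RXR heterodimer), 100 ng promoter-luciferase construct and 50 ng LacZ. Luciferase was normalized to LacZ and to a no-NHR/no-ligand control.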
# hCAR promoter = experiment: NHR-promoter luciferase screen, hCAR promoter; format: cell-based, human; settings: for luciferase activity normalized to lacZ activity and to a control, hCAR: hCAR promoter-luciferase, CV-1 cells, NHR +/- ligand, control = 1.00; for Luc. act., normalized to lacZ / Normalized Luc. act., normalized to control: hCAR promoter, HR/ligand component
# How it was run: as §1
# hPOMC promoter = experiment: NHR-promoter luciferase screen, hPOMC promoter; format: cell-based, human; settings: for Luc. act., normalized to lacZ / Normalized Luc. act., normalized to control: hPOMC promoter, HR/ligand component; for hPOMC promoter reporter activity: transcription factor +/- ligand, control = 1.00
# How it was run: as §1
# mPOMC promoter = experiment: NHR-promoter luciferase screen, mPOMC promoter; format: cell-based, mouse; settings: for Results of assays of transcription factor (+/- ligand) with mPOMC: Table 6d, luciferase activity relative to control (control = 1.00); for Luc. act., normalized to lacZ / Normalized Luc. act., normalized to control: mPOMC promoter, HR component with or without ligand; for Normalized Luc. act., normalized to control: relative to control
# How it was run: as §1
# mDio1 promoter = experiment: NHR-promoter luciferase screen, mDio1 promoter; format: cell-based, mouse; settings: for Luc. act., normalized to lacZ / Normalized Luc. act., normalized to control: Dio1, HR component without or with its ligand; for mDio1 promoter reporter activity: transcription factor +/- ligand, control = 1.00
# How it was run: as §1
# mABCA1 promoter = experiment: NHR-promoter luciferase screen, mABCA1 promoter; format: cell-based, mouse; settings: for Luc. act., normalized to lacZ / Normalized Luc. act., normalized to control: ABCA1 promoter, hormone receptor with or without its ligand; for Normalized Luc. act., normalized to control: relative to control; for mABCA1 promoter reporter activity: transcription factor +/- ligand, control = 1.00
# How it was run: as §1
Molecule,"luciferase activity normalized to lacZ activity and to a control, mCAR (mCAR promoter)","Luc. act., normalized to lacZ (mCAR promoter)","Normalized Luc. act., normalized to control (mCAR promoter)","luciferase activity normalized to lacZ activity and to a control, hCAR (hCAR promoter)","Luc. act., normalized to lacZ (hCAR promoter)","Normalized Luc. act., normalized to control (hCAR promoter)","luciferase/LacZ, hPOMC (selected results) (hPOMC promoter; hPOMC promoter-luciferase, NHR +/- ligand, control = 1.0)","Luc. act., normalized to lacZ (hPOMC promoter)","Normalized Luc. act., normalized to control (hPOMC promoter)",hPOMC promoter reporter activity (hPOMC promoter),Results of assays of transcription factor (+/- ligand) with mPOMC (mPOMC promoter),"Luc. act., normalized to lacZ (mPOMC promoter)","Normalized Luc. act., normalized to control (mPOMC promoter)","Luc. act., normalized to lacZ (mDio1 promoter)","Normalized Luc. act., normalized to control (mDio1 promoter)",mDio1 promoter reporter activity (mDio1 promoter),"Luc. act., normalized to lacZ (mABCA1 promoter)","Normalized Luc. act., normalized to control (mABCA1 promoter)",mABCA1 promoter reporter activity (mABCA1 promoter)
"TR4: Testicular Orphan Nuclear Receptor 4 (NR2C2), cDNA driver (protein, UniProt P49116 1-596, looked up) Nuclear receptor subfamily 2 …: MTSPSPRIQIISTDSAVASPQRIQIVTDQQTGQKIQIVTAVDASGSPKQQFILTSPDGAGTGKVILASPETSSAKQLIFTTSDNLVPGRIQIVTDSASVERLLGKTDVQRPQVVEYCVVCGDKASGRHYGAVSCEGCKGFFKRSVRKNLTYSCRSNQDCIINKHHRNRCQFCRLKKCLEMGMKMESVQSERKPFDVQREKPSNCAASTEKIYIRKDLRSPLIATPTFVADKDGARQTGLLDPGMLVNIQQPLIREDGTVLLATDSKAETSQGALGTLANVVTSLANLSESLNNGDTSEIQPEDQSASEITRAFDTLAKALNTTDSSSSPSLADGIDTSGGGSIHVISRDQSTPIIEVEGPLLSDTHVTFKLTMPSPMPEYLNVHYICESASRLLFLSMHWARSIPAFQALGQDCNTSLVRACWNELFTLGLAQCAQVMSLSTILAAIVNHLQNSIQEDKLSGDRIKQVMEHIWKLQEFCNSMAKLDIDGYEYAYLKAIVLFSPDHPGLTSTSQIEKFQEKAQMELQDYVQKTYSEDTYRLARILVRLPALRLMSSNITEELFFTGLIGNVSIDSIIPYILKMETAEYNGQITGASL",2.52,96.2,2.5,3.15,99.4,3.1,11.8,50.7,11.8,11.80,3.75,258.7,3.8,56.0,12.6,12.55,36.4,6.5,6.49
"Erb: Estrogen Receptor β (NR3A2, ERb), cDNA driver (protein, UniProt Q92731 1-530, looked up) Estrogen receptor beta: MDIKNSPSSLNSPSSYNCSQSILPLEHGSIYIPSSYVDSHHEYPAMTFYSPAVMNYSIPSNVTNLEGGPGRQTTSPNVLWPTPGHLSPLVVHRQLSHLYAEPQKSPWCEARSLEHTLPVNRETLKRKVSGNRCASPVTGPGSKRDAHFCAVCSDYASGYHYGVWSCEGCKAFFKRSIQGHNDYICPATNQCTIDKNRRKSCQACRLRKCYEVGMVKCGSRRERCGYRLVRRQRSADEQLHCAGKAKRSGGHAPRVRELLLDALSPEQLVLTLLEAEPPHVLISRPSAPFTEASMMMSLTKLADKELVHMISWAKKIPGFVELSLFDQVRLLESCWMEVLMMGLMWRSIDHPGKLIFAPDLVLDRDEGKCVEGILEIFDMLLATTSRFRELKLQHKEYLCVKAMILLNSSMYPLVTATQDADSSRKLAHLLNAVTDALVWVIAKSGISSQQQSMRLANLLMLLSHVRHASNKGMEHLLNMKCKNVVPVYDLLLEMLNAHVLRGCKSSITGSECSPAEDSKSKEGSQNPQSQ",1.18,44.8,1.2,0.81,25.7,0.8,,3.2,0.7,0.74,1.00,69.1,1.0,9.3,2.1,2.09,12.4,2.2,2.21
